Consider seven molecules from US20190071514A1, “ANTI-CD39 ANTIBODIES” (INNATE PHARMA, priority 2016, published 2019).

Where a chain is given by its changes, count along the chain named. In names and notes the source's numbering stands. A value given as a limit tells only on which side of the number the result lay.

The chains are these.
B1: mAb3 (antibody, human IgG1, V domains shown)
VH: QVQLVQSGSELKKPGASVKVSCKASGYTFTHYGMNWVRQAPGKGLKWMGWINTYTGEPTYADDFKGRFVFSLDTSVSTAYLQISSLKAEDTAVYYCARRRYEGNYVFYYFDYWGQGTTVTVSS
VL: DIQMTQSPSSLSASVGDRVTITCRASENIYSYFSWYQQKPGKAPKLLIYTAKTLAEGVPSRFSGSGSGTDFTLTISSLQPEDFATYYCQHHYVTPYTFGGGTKVEIK
notes: Produced as Fc silent recombinant human IgG1 with heavy chain N297Q (Kabat EU numbering) and huCk constant domain; also called anti-CD39 antibody mAb3
B2: mAb4 (antibody, human IgG1, V domains shown)
VH: B1 VH with V2I, T74A
VL: B1 VL
notes: Produced as Fc silent recombinant human IgG1 with heavy chain N297Q (Kabat EU numbering) and huCk constant domain; also called anti-CD39 antibody mAb4
B3: mAb5 (antibody, human IgG1, V domains shown)
VH: B1 VH with K43Q
VL: B1 VL with I48V
notes: Produced as Fc silent recombinant human IgG1 with heavy chain N297Q (Kabat EU numbering) and huCk constant domain; also called anti-CD39 antibody mAb5
B4: mAb6 (antibody, human IgG1, V domains shown)
VH: B1 VH
VL: B1 VL with I48V
notes: Produced as Fc silent recombinant human IgG1 with heavy chain N297Q (Kabat EU numbering) and huCk constant domain; also called anti-CD39 antibody mAb6
B5: mAb1 (antibody, human IgG1, V domains shown)
VH: B1 VH with K43Q, K46E
VL: B1 VL
notes: Produced as Fc silent recombinant human IgG1 with heavy chain N297Q (Kabat EU numbering) and huCk constant domain; also called anti-CD39 antibody mAb1
B6: mAb7 (antibody, human IgG1, V domains shown)
VH: B1 VH with V2I, T74A
VL: B1 VL with I48V
notes: Produced as Fc silent recombinant human IgG1 with heavy chain N297Q (Kabat EU numbering) and huCk constant domain; also called anti-CD39 antibody mAb7
B7: mAb2 (antibody, human IgG1, V domains shown)
VH: B1 VH with K43Q
VL: B1 VL
notes: Produced as Fc silent recombinant human IgG1 with heavy chain N297Q (Kabat EU numbering) and huCk constant domain; also called anti-CD39 antibody mAb2

One assay deals with T1, Human CD39-L2 (human, UniProt O75354 61-484, limits assumed).
T1 construct: Recombinant protein coated on ELISA plates; also called NTPDase6; ENTPD6
T1 sequence: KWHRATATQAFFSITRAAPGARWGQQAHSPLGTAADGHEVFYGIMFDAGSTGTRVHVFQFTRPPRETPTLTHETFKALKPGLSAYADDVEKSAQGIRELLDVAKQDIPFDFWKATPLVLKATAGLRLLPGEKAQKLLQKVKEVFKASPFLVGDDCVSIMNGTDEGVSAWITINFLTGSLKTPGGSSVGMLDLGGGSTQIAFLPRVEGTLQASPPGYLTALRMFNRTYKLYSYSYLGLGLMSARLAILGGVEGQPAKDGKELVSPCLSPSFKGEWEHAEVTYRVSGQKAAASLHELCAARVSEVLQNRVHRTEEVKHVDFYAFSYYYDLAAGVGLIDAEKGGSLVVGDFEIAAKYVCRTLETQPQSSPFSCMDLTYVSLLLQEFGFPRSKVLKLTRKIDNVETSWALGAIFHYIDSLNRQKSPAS
As to the kind of experiment: ELISA, recombinant isoform coated, dose range of antibody. As to the method:
(§1) Antibodies were tested for binding to recombinant human CD39 isoforms (Rec-huCD39 isoforms). The CD39 isoforms having amino acid sequences shown in the table below were coated in 96-well plate in PBS 1× at 500 ng/ml or 1 μg/ml at 4° C. overnight. Wells were washed in TBS Tween 20, and further saturated 2H at RT in TBS Blocking buffer (Thermo Fisher Scientific Inc.). Dose range concentration of primary antibody was incubated in TBS blocking buffer for 2 h at RT. Wells were washed in TBS Tween 20. […] Optical density was measured on Enspire at OD=450.
Turning to B1, the binding result is “no binding”.
Same read-out and setting: for B2 the value was “no binding”; for B3, “no binding”; for B4, “no binding”.
For the molecule B5, the binding result was “no binding”.
Still for that read-out and setting: for B6 the value was “no binding”; for B7, “no binding”.

The target in the next assay is T2, Human CD39-L3 (human, UniProt O75355 44-485, limits assumed).
T2 construct: Recombinant protein coated on ELISA plates; also called NTPDase3; ENTPD3
T2 sequence: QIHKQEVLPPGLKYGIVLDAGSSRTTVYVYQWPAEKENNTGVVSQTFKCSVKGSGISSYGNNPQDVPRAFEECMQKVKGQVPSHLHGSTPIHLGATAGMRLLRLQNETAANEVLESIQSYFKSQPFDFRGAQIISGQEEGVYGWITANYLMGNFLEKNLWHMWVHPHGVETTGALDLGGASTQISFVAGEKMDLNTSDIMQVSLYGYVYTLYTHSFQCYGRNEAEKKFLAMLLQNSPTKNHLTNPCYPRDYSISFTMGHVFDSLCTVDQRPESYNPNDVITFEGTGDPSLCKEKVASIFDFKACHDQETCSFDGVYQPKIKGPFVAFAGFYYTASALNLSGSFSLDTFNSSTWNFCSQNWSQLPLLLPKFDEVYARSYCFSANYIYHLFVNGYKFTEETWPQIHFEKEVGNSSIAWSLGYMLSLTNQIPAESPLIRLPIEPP
The assay is described as above. The method, then:
as §1
On to B1, for which the binding result is on record as “no binding”.
B2: the binding result is given as “no binding”.
On the same count and under the same terms, for B3 the value was “no binding”; for B4, “no binding”.
Same read-out and setting: for B5 the value was “no binding”; for B6, “no binding”.
Consider B7, for which the binding result is on record as “no binding”.

Another assay addresses T3, Human CD39-L4 (human, UniProt O75356 25-428).
T3 construct: Recombinant protein coated on ELISA plates; also called NTPDase5; ENTPD5
T3 sequence: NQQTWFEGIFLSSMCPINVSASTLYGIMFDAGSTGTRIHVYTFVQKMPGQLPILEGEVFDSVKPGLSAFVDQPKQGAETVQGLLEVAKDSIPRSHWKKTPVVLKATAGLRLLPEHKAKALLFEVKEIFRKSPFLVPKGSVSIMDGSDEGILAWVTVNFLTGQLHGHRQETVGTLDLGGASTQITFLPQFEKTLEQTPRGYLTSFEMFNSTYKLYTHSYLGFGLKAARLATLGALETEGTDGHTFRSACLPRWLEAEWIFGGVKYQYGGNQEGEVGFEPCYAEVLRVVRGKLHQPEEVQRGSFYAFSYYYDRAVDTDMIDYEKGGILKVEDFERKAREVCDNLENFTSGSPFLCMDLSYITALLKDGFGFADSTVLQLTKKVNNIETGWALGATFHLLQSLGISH
The description is as above. The method, then: as §1
Consider B1, for which the binding result is listed as “no binding”.
Still for that read-out and setting: for B2 the value was “no binding”; for B3, “no binding”.
Same read-out and setting: as for B4, the entry is “no binding”.
Still for that read-out and setting: for B5 the value was “no binding”.
On to B6, for which the binding result is “no binding”.
Consider B7, for which the binding result is “no binding”.

A further assay addresses T4, human CD39 endogenously expressed on Ramos human lymphoma cells (human, UniProt P49961 1-510).
T4 sequence: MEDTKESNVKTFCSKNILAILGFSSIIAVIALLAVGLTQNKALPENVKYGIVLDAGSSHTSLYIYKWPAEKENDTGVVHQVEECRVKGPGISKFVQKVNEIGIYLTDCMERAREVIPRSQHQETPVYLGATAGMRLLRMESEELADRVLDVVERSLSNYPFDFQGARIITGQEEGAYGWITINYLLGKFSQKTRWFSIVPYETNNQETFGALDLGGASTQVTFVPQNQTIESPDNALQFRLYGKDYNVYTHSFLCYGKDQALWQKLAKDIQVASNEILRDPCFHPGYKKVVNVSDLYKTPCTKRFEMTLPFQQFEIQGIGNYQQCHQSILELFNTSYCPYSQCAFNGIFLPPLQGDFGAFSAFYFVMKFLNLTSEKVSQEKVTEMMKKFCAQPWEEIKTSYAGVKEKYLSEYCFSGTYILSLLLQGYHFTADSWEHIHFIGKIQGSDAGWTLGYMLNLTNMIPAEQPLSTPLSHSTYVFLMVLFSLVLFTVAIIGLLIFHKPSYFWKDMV
As to the kind of experiment: cell-based or functional assay.
As to B1, the “inhibition of CD39 enzymatic activity (AMP generated by Ramos cells, Maldi TOF)” value is at least 90%.
Same read-out and setting: as for B2, the figure is at least 90%.
Still for that read-out and setting: as for B3, the figure is at least 90%.
Still for that read-out and setting: as for B4, the figure is at least 90%; as for B5, at least 90%; as for B6, at least 90%.
For B7, the “inhibition of CD39 enzymatic activity (AMP generated by Ramos cells, Maldi TOF)” value was at least 90%.
